Reference: US20190106487A1 (Sanofi, published 2019)

T1: rhIL-1RAcP/Fc Chimera (human, UniProt Q9NPH3 21-359)
T1 construct: also called P013_03; P013-03
T1 sequence (looked up): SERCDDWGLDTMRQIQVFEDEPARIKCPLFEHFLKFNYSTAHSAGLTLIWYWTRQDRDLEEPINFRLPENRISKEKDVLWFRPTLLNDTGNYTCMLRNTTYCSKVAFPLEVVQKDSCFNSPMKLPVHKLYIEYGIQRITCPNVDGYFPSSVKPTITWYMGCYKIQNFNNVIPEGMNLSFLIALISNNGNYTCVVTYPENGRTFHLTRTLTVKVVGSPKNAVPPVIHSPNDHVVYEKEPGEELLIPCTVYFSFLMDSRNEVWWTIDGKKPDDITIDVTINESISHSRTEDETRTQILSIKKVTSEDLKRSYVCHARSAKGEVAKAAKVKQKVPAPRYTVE

T2: human IL-1RAcP on 293T/17-FR cells (human, UniProt Q9NPH3 21-570)
T2 sequence (looked up): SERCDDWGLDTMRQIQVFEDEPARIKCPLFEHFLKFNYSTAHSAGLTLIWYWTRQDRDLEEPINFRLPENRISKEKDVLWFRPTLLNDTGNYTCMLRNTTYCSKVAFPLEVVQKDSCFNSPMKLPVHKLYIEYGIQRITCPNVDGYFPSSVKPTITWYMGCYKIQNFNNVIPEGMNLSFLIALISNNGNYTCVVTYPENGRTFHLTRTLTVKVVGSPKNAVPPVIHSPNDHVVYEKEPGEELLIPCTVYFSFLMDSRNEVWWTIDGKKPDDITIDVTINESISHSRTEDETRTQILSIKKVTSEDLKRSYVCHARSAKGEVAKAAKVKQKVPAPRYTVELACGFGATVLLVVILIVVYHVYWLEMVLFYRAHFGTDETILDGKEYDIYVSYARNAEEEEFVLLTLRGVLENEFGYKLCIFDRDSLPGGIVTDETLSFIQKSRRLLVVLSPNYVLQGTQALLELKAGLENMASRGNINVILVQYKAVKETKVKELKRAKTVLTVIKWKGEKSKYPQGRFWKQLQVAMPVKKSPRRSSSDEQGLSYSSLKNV

T3: mIL1RAcP-Fc (murine, UniProt Q61730 21-359)
T3 construct: also called P013_04; P013-04
T3 sequence (looked up): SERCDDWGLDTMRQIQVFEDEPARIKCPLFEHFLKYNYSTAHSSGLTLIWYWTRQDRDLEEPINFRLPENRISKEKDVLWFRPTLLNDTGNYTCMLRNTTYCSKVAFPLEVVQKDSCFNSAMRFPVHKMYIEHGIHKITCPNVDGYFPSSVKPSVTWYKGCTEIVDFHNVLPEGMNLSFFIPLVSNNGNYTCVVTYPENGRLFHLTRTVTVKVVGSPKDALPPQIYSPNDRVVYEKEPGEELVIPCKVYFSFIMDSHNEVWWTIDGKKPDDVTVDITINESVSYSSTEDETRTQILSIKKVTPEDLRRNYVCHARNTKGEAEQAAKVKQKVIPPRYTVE


Key:
rhIL-1RAcP/Fc Chimera [1] = target: T1, rhIL-1RAcP/Fc Chimera; assay: ELISA, primary supernatant, coated hu-IL-1RAcP-Fc
Procedure, shortened: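 Plates coated with 0.5 μg/mL Fc-tagged human IL-1RAcP; rabbit B-cell supernatant antibodies detected by peroxidase anti-rabbit IgG Fab2 and TMB, absorbance 450/620 nm. Parallel IL12Rβ1-Fc coating served as counterscreen to exclude tag binders.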

rhIL-1RAcP/Fc Chimera [2] = target: T1, rhIL-1RAcP/Fc Chimera; assay: ELISA, recombinant purified mAb
[3] = target: T2, human IL-1RAcP on 293T/17-FR cells; assay: cell-based or functional assay
mIL1RAcP-Fc = target: T3, mIL1RAcP-Fc; assay: ELISA, primary supernatant, coated mu-IL-1RAcP-Fc

hu-IL1RaP ELISA (OD) (rhIL-1RAcP/Fc Chimera [1]) | EC50 (rhIL-1RAcP/Fc Chimera [2]) | functional reporter gene assay (% inhibition), 0.04 µg/mL mAb [3] | functional reporter gene assay (% inhibition), 0.2 µg/mL mAb [3] | functional reporter gene assay (% inhibition), 1 µg/mL mAb [3] | functional reporter gene assay (% inhibition), 5 µg/mL mAb [3] | primary supernatant functional assay (% inh.), NF-kB luciferase reporter [3] | mu-IL1RaP ELISA (OD) (mIL1RAcP-Fc) | Binder
3.6 OD | 0.362 mg/L | -16% | 42% | 47% | 48% | 80% | 0 OD | P013.S.02.B.A05 (antibody, V domains shown, rabbit monoclonal antibody; also called P013.A.00031.D11) VH: QEQLVESGGGLVQPEGSLTLTCQASGFTFSSYYVICWVRQAPGKGLEWIACIGTGDGLTYYASWAKGRFTISKTSSTTVTLQMTSLTAADTATYFCARDRYATVSGILNLWGPGTLVTVSS VL: DVVMTQTPASVEAAVGGTVTIKCQASQNIYSNCAWYQQKLGQRPKLLIYYVSTLESGVPSRFEGSGYGTEFTLTISDLQSADAATYYCQYTYDSSSSTSWAFGGGTEVVVK
3.4 OD | 0.555 mg/L | 9% | 22% | 54% | 79% | 85% | -0.1 OD | P013.S.02.B.D01 (antibody, V domains shown, rabbit monoclonal antibody; also called P013.A.00141.G02) VH: LEQSGGGAEGGLVKPGGSLELCCKASGFSLSSNYWMCWVRQAPGKGLEWIGCIYAGSSDSTYYASWVNGRFTLSRDIDQSTGCLQLNSLTAADTAMYYCASPGYGGYGYYGLWGQGTLVTVSS VL: ALVMTQTPSPVSAAVGGTVTINCQASEDIYSNLAWFQQKPGQPPKLLIYDASTLASGVPSRFSGSGSGTEFTLTISGLQSDDAATYYCLGVYTYISPDGTDNAFGGGTEVVVK
3.3 OD | 0.541 mg/L | 1% | 22% | 58% | 79% | 85% | 0 OD | P013.S.02.B.D02 (antibody, V domains shown, rabbit monoclonal antibody; also called P013.A.00086.F05) VH: QSLEESGGDLVKPGASLKLSCTASGVSFSSAYWMCWVRQAPGKGLEWIACIYAGSSGSTYYASWAKGRFTISKTSSTTVTLQMTSLTAADTATYFCARHAAWFELDLWGPGTLVTVSS VL: ALVMTQTPSPVSAAVGGTVTINCQASQNIASAYLSWYQQKPGQPPKLLIYAASTLTDGVPSRFKGSGSVTEFTLTISGVQSDDAATYYCAGYKSYTDDEFAFGGGTEVVVK

Second part, the binder before the results:

Binder | hu-IL1RaP ELISA (OD) (rhIL-1RAcP/Fc Chimera [1]) | EC50 (rhIL-1RAcP/Fc Chimera [2]) | functional reporter gene assay (% inhibition), 0.04 µg/mL mAb [3] | functional reporter gene assay (% inhibition), 0.2 µg/mL mAb [3] | functional reporter gene assay (% inhibition), 1 µg/mL mAb [3] | functional reporter gene assay (% inhibition), 5 µg/mL mAb [3] | primary supernatant functional assay (% inh.), NF-kB luciferase reporter [3] | mu-IL1RaP ELISA (OD) (mIL1RAcP-Fc)
P013.S.02.B.C03 (antibody, V domains shown, rabbit monoclonal antibody; also called P013.A.00085.G07) VH: QSLEESGGRLVTPGTPLTLTCTVSGIDLSSYAMGWVRQAPGKGLEYIGIISNSGTTYYASWAKGRFTISKTSSTTVDLKMTSPTTEDTATYFCARDRYANTHGIFSLWGQGTLVTVSS VL: DIVMTQTPASVSAPVGGTVTINCQASESIYSDLAWYQQKPGQPPKLLISFVATLESGVPSRFKGSGSGTEFTLTISDLESADAATYYCQCTYGGSGSGNGAAFGGGTEVVVK | 3.6 OD | 0.847 mg/L | 21% | 27% | 31% | 30% | 29% | 0.7 OD
P013.S.01.B.H06 (antibody, V domains shown, rabbit monoclonal antibody; also called P013.A.00086.B03) VH: LEQSGGGGEGGLVKPGGSLELCCKASGFSLSSSYWICWVRQAPGKGLEWIGCIYVGSSGSTYYASWVSGRFTLSRDIDQSTGCLQLNSLTAADTAMYYCARDIYGSTNGYDLWGQGTLVTVSS VL: ALVMTQTPSPVSAAVGGTVTINCQASEDIYSNLAWFQQKPGQPPKLLIYQASKLASGVPSRFSGSGSGTEFTLTISGLQSDDVATYYCLGVGTYISGDGSLDNAFGGGTEVVVK | 3.6 OD | 0.064 mg/L | 18% | 47% | 88% | 96% | 91% | 0 OD
P013.S.01.B.C06 (antibody, V domains shown, rabbit monoclonal antibody; also called P013.A.00014.D06) VH: QSVEESGGRLVTPGGSLTLTCTVSGFSLSIYAMGWFRQAPGKGLEWIGDIYAGSGSTWYASWAKGRFTISKTSTTVDLKITSPTTEDTATYFCAREIDAGYVGYGFNLWGQGTLVTVSS VL: AQALTQTPSSVSAAVGGTVTINCQSSQSVYSDYLAWYQQKPGQPPKLLIYQASKLATGVPSRFKGSGSGTQFTLTISGVQSDDAATYYCQATYYGSGWYRAFGGGTELVVK | 3.4 OD | 0.07 mg/L | 15% | 70% | 92% | 93% | 72% | -0.1 OD
P013.S.02.B.C01 (antibody, V domains shown, rabbit monoclonal antibody; also called P013.A.00109.C12) VH: QSVEESGGRLVTPGGSLTLTCTVSGFSLSVYAMGWFRQAPGKGLEWIGDIYTGSGSTWYASWAKGRFTISKTSTTVDLKITSPTTEDTATYFCAREIDAGYVGYGFNLWGQGTLVTVSS VL: AQALTQTPSSVSAAVGGTVTINCQSSQSVYSDYLVWYQQKPGQPPKLLIYQASKLASGVPSRFKGSGSGTQFTLTISGVQSDDAATYYCQATYSSTGWYRAFGGGTEVVVK | 3.5 OD | 0.256 mg/L | 19% | 28% | 73% | 96% | 88% | -0.1 OD
P013.S.02.B.B03 (antibody, V domains shown, rabbit monoclonal antibody; also called P013.A.00045.F11) VH: QEQLEESGGDLVKPEGSLTLTCTASGFSFSSNYWICWVRQAPGKGLELIACIYTSTGNTWYASWAKGRFTISKTSSTTVTLQMTSLTVADTATYFCARDLLVVTSFNLWGQGTLVTVSS VL: ALVMTQTPSPVSAAVGGTVTINCQASEDIYSNLAWFQQKPGQPPKLLIYGASTLASGVPSRFSGSGSGTEFTLTISGVQSDDAATYYCLGVCTDISTDDLYNAFGGGTELVVK | 3.8 OD | 0.287 mg/L | 17% | 31% | 78% | 89% | 94% | -0.1 OD
P013.S.02.B.F04 (antibody, V domains shown, rabbit monoclonal antibody; also called P013.A.00109.B02) VH: QEQLVESGGDLVKPEGSLTLTCTASGFSFSSNYWICWVRQAPGKGLEWIACIYTSTDTTYYPNWAKGRFTISKTSSTTVTLQMTSLTAADTATYFCARDLLVVTSFNLWGQGTLVTVSS VL: ALVMTQTPSPVSAAVGGTVTINCQASEDIYSNLAWFQQKPGQPPKLLIYGASTLASGVPSRFSGSGSGTEFTLTISGVQSDDAATYYCLGVCTDISADDLYNTFGGGTEVVVK | 3.5 OD | 0.497 mg/L | 21% | 6% | 81% | 96% | 93% | 0 OD
P013.S.02.B.B02 (antibody, V domains shown, rabbit monoclonal antibody; also called P013.A.00045.H10) VH: LAQSGGGAEGGLVKPGGSLELCCEASGFSLSSSYWICWVRQAPGKGLEWIGCIYTGSSGNTYYASWVNGRFTLSRDIDRSTGCLQLNSLTAADTAMYYCARDANSHYMMNLWGQGTLVTVSS VL: ALVMTQTPSPVSAAVGGTVTINCQASEDIYSNLAWFQQKPGQPPKLLIYDASTLASGVPSRFSGSGSGTEFTLTISGLQSDDAATYYCLGVYTYISADGTLVYNAFGGGTEVVVR | 3.4 OD | 0.359 mg/L | 26% | 37% | 33% | 87% | 95% | -0.1 OD
